Measured values from US20210261685A1 (Alector, published 2021).
Where two headings read alike, the source gives them in different places. Values belong to the binder of their own block, whether it stands above or below them.

How the values were obtained:
[1] = biological target: T1, cyno MerTK extracellular domain (ECD), recombinant (cynomolgus monkey, UniProt Q12866 21-505 (human entry)); assay: SPR, Carterra LSA, antibody immobilised
T1 construct: also called cynomolgus MerTK; not shown: polyHis tag or TEVS/Thrombin/murine IgG2a Fc tag
T1 chain: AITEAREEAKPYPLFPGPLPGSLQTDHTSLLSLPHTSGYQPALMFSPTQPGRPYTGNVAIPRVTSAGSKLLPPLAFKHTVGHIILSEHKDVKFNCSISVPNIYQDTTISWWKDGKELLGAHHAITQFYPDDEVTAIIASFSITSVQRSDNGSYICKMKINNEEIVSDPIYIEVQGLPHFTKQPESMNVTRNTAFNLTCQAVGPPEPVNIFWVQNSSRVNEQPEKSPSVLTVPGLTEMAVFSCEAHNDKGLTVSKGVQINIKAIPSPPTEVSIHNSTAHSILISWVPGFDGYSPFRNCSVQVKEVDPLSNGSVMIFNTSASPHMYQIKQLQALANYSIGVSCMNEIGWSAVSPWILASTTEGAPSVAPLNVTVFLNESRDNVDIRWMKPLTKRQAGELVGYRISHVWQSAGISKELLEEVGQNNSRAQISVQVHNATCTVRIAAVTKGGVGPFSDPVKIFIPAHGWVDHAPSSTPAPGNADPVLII
In short: (§1)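 Anti-MerTK antibodies (human IgG1 carrying the LALAPS Fc variant) were diluted to 10 μg/ml in 10 mM Acetate, pH 4.25, and coupled in a 96-spot array onto an HC200M chip activated with MES/sulfo-NHS/EDC, then blocked with 1M Ethanolamine pH 8.5 on a Carterra system. MerTK analyte at 33.3, 100, and 300 nM was injected serially without regeneration, and KD was derived from fitted on- and off-rates in NextGenKIT.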

[2] = biological target: T2, murine MerTK extracellular domain (ECD), recombinant (mouse, UniProt Q60805 19-497); assay: SPR, Carterra LSA, antibody immobilised
T2 construct: also called moMerTK; mouse MerTK; not shown: polyHis tag or TEVS/Thrombin/murine IgG2a Fc tag
T2 sequence: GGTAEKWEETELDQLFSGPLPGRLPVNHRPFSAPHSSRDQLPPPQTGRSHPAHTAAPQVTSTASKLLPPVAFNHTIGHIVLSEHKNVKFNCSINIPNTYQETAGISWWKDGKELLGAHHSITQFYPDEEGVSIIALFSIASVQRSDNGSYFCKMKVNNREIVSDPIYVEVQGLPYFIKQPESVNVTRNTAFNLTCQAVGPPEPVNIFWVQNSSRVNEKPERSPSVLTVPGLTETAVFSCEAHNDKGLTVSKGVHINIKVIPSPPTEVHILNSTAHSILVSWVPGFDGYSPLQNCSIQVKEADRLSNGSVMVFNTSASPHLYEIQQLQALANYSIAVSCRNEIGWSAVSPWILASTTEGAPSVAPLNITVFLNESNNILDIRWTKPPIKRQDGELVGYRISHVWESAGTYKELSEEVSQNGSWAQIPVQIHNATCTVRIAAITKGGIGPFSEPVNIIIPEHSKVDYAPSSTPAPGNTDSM
In short: as §1

[3] = biological target: T3, human MerTK extracellular domain (ECD), recombinant (human, UniProt Q12866 21-505); assay: SPR, Carterra LSA, antibody immobilised
T3 construct: also called huMerTK; not shown: polyHis tag or TEVS/Thrombin/murine IgG2a Fc tag
T3 sequence: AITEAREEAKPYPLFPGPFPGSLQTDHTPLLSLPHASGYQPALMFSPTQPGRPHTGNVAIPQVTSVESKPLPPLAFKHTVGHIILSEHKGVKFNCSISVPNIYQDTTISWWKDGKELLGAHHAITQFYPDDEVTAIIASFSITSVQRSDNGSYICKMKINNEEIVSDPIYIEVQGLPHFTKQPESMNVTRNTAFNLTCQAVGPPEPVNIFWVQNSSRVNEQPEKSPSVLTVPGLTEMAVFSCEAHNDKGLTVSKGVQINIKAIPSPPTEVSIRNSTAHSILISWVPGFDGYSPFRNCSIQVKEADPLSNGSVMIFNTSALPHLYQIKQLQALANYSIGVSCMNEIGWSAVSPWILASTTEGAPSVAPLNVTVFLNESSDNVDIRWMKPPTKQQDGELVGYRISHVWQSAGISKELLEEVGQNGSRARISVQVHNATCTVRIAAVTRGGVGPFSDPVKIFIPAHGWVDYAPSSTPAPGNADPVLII
In short: as §1

[4] = biological target: T4, Recombinant human MerTK human Fc Chimera protein (R&D systems, Cat #391-MR-100) (human, UniProt Q12866 26-499, limits assumed); assay: competition ELISA, His-ProS on captured MerTK-Fc
T4 construct: Bought; also called recombinant human MerTK protein; MerTK-Fc
T4 sequence: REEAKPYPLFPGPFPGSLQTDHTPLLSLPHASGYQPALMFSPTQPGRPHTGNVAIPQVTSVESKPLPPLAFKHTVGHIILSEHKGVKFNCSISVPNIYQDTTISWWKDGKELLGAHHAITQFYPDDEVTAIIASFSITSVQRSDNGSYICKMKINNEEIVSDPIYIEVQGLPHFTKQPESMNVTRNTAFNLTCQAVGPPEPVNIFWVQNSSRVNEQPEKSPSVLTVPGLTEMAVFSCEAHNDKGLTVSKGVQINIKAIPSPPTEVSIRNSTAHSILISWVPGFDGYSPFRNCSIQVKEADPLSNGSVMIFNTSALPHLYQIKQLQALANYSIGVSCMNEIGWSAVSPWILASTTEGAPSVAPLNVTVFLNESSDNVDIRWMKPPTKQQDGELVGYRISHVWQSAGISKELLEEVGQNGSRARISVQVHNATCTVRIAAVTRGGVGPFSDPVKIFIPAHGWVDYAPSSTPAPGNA
Description: Rabbit anti-human IgG polyclonal antibody (Jackson ImmunoResearch, Cat #309-005-008) was captured to a high-protein binding plate at 2 μg/ml 4° C. overnight. After washing with 0.05% Tween20 in PBS three times, 5% BSA in PBS was added for 1 hour. Recombinant human MerTK human Fc Chimera protein (R&D systems, Cat #391-MR-100) was added at 2 μg/ml for 1 hour and the plates were then washed. Anti-MerTK antibodies were titrated to final concentration range of between 66.6 nM to 4 pM and then 40 μl of serially diluted antibody and 40 μl of His tag-conjugated recombinant Gas6 protein (R&D systems, Cat #885-GSB-050) at 3 μg/ml or His tag-conjugated recombinant ProS protein (R&D systems, Cat #9489-PS-100) at 20 μg/ml. After a further incubation for 1 hour, plates were washed and incubated for 1 hour with HRP-conjugated anti-6×His tag antibody (Abcam, Cat #ab1187). Plates were then washed and an HRP substrate (TMB) was used to develop the plates. After sufficient color change was observed, the reaction was stopped by adding 50 μl 2N H₂SO₄ and the OD was measured using a spectrophotometer (BioTek).
From these experiments, IC50 values [nM] were determined using OD450 values obtained from the dose-response curves analyzed with Prism software. Table 14 and Table 15 show IC50 values determined for anti-MerTK antibody blocking of Gas6 ligand binding and ProS ligand binding to MerTK. […] Dashes indicate lack of significant blocking; “n.a.” indicates data not available.

[5] = biological target: T5, human Axl ECD construct (Full Axl) with linker+His+Avi tag (human, UniProt P30530 26-451); assay: SPR, Carterra LSA, antibody immobilised, construct supernatant injected
T5 construct: tested as Expi293 supernatant; also called ECD domain of human Axl
T5 sequence: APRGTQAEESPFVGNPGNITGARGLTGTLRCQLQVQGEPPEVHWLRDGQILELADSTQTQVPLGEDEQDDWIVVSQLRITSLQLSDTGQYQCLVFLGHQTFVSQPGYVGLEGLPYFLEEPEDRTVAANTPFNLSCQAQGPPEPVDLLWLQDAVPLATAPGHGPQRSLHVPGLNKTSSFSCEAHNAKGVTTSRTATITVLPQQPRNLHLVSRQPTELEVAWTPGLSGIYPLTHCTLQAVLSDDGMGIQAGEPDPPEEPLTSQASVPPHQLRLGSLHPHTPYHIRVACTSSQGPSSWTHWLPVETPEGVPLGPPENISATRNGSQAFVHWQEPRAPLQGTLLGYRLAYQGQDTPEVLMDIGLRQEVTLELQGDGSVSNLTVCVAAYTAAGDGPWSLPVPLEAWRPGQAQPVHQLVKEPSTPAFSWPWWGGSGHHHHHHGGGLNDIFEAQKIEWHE
Description: Binding of anti-MerTK antibodies of the present disclosure to these domain-swapped chimera or deletion mutants (prepared as described above) was tested by Surface Plasmon Resonance (SPR) using Carterra LSA. Purified anti-MerTK antibodies were immobilized in duplicate on a HC30M chip (Carterra) by amine coupling, following the manufacturer's instructions (described previously). Supernatants containing the constructs were diluted 1:1 with running buffer containing 0.5 mg/mL BSA (HBS-TE, Carterra) and injected over the immobilized antibodies. The surface was regenerated with 10 mM Glycine pH2.0 after each construct injection. Sensorgrams were analyzed using Carterra Epitope software to identify patterns of construct binding. Loss of binding to MerTK constructs with domains deleted or swapped in from Axl and/or gain of binding to Axl constructs with MerTK domains swapped in were evaluated. Data from these studies was used to construct a domain binding map for anti-MerTK antibodies and their binding to various domains of human MerTK.

[6] = biological target: T1, cyno MerTK extracellular domain (ECD), …; assay: SPR, Carterra LSA, antibody immobilised; LB = Low binding
Description: (§2) Binding kinetics of human anti-MerTK IgG1 LALAPS antibodies of the present disclosure to human, cyno, and murine MerTK were evaluated using a Carterra LSA instrument (Carterra, Salt Lake City, Utah). Briefly, anti-MerTK antibodies were prepared by diluting to 10 μg/ml in 10 mM Acetate, pH 4.25 (Carterra), at 300 μl/well. A HC200M sensor chip (Carterra) was activated using the single channel flow cell with a 7-minute injection of a 1:1:1 mixture of 100 mM MES pH 5.5, 100 mM sulfo-NHS, 400 mM EDC (all reconstituted in MES pH 5.5; 100 μl of each mixed in vial immediately before running assay). After switching to the multi-channel array flow cell, the antibodies were injected over the activated chip in a 96-spot array for 15 minutes. The remaining unconjugated active groups on the chip were then blocked by injecting 1M Ethanolamine pH 8.5 (Carterra) for 7 minutes using the single channel flow cell.
After priming with running buffer (HBS-TE, Carterra) with 0.5 mg/ml BSA (Sigma), the immobilized anti-MerTK antibodies were tested for their ability to bind to several forms of recombinant MerTK extracellular domain, including human, cynomolgus, and mouse orthologs as described above. […] Data were processed and analyzed using NextGenKIT high-throughput kinetics analysis software (Carterra).

[7] = biological target: T2, murine MerTK extracellular domain …; assay: SPR, Carterra LSA, antibody immobilised; remark: listed apart in the source
Description: as §2
(§3) After priming with running buffer (HBS-TE, Carterra) with 0.5 mg/ml BSA (Sigma), the immobilized anti-MerTK antibodies were tested for their ability to bind to several forms of recombinant MerTK extracellular domain, including human, cynomolgus, and mouse orthologs as described above. Estimates of affinity were generated by injecting each analyte over the entire antibody array using the single channel flow cell. MerTK analytes were diluted to 33.3, 100, and 300 nM in running buffer, and injected in serial from lowest to highest concentration without regeneration. Two buffer blanks were run between each series (one species per series). Data were processed and analyzed using NextGenKIT high-throughput kinetics analysis software (Carterra).
(§4) The equilibrium dissociation constants (KD) were then calculated from the fitted association and dissociation rate constants (k-on and k-off) for anti-MerTK antibodies of the present disclosure. Binding kinetic analysis was also performed on anti-MerTK antibodies H1 (BioLegend, Clone ID: 590H11G1E3), H2 (R&D systems, Clone ID: 125518), M6 (WO2016/106221), and CDX AB2000-A7 hIgG1 (WO2019/084307).

[8] = biological target: T3, human MerTK extracellular domain (ECD), …; assay: SPR, Carterra LSA, antibody immobilised; remark: listed apart in the source
Description: as §2, §3, §4

B1: MTK-33.21 (antibody, human IgG1, V domains shown)
VH: QVQLVQSGAEVKKPGASVKVSCKASGYTFTSYWMHWVRQAPGQGLEWIGVIDPSDNYINYNQKFRGRVTMTRDTSTSTVYMELSSLRSEDTAVYYCAREAGTRGYFDYWGQGTLVTVSS
VL: DIQMTQSPSSLSASVGGRVTITCQASRSVSNTVAWYQQKPGKAPKLLIYYVSNRYTGVPSRFSGSGSGTDFTFTISSLQPEDIATYYCQQDMRSPFTFGQGTKLEIK
Kd [1]: 0.3 nM
Kd [2]: 44 nM
Kd [3]: 0.4 nM

B2: MTK-23 (antibody, human IgG1, V domains shown)
VH: QVQLQQSGADLVRPGASVKISCKAFGYTFTNHHINWVKQRPGQGLDWIGNVDPYNDYSTYNQKFKGKATLTVDKSSSTAYMELSSLTSEDSAVYYCARRVYDGFYVDWYFDVWGAGTTVTVSS
VL: DIVMTQSHKFMSTPVGDRVSITCKASRDVSTAVAWFHQKPGQSPKLLIYSASYRSTGVPDRFTGSGSGTDFTFTISSVQAEDLAVYYCQQHYSAPLTFGAGTKLELK
IC50 [4]: 25.9 nM

More lines, now with the values ahead:

binding result [5]: no binding
B3: MTK-25 (antibody, human IgG1, V domains shown)
VH: EVKLVESEGGLVQPGSSMKLSCTASGFTFSDYYMAWVRQVPEKGLEWVANINYEGSSTYYLGSLKSRFIISRDNAENILYLQMSSLKSEDTATYYCARYYYGSVDYWGQGTTLTVSS
VL: DIVMTQSQKFMSTSVGDRVSITCKASQNVRTTVAWYQQKPGQSPKTLIYLASNRHTGVPDRFTGSGSGTDFTLTISNVQSEDLADYFCLQLWNYPWTFGGGTKLEIK

binding result [5]: no binding
binding result [6]: binds
binding result [7]: no binding (tested: 300 nM)
Kd [8]: 54 nM
B4: MTK-22 (antibody, human IgG1, V domains shown)
VH: QVQLQQPGADLVEPGASVKLSCKASGYTFTSYWMHWVKQRPGQGLEWIGEIDPSDSSSNYNQKFKGKATLTVDKSSSTAYMHLNSLTSEDSAVYYCARRYYYGSLYFDNWGQGTTLTVSS
VL: DVVMTQSHKFMSTSVGDRVSITCKASQDVGTAIAWYQQKPGQSPKLLIYWASTRHTGVPDRFTGSRSGTVFTLTISNVQSEDLADYFCQQYTSYPLTFGSGTKLEIK
